According to FireProtDB (doi:10.1021/bi972279a):

Conditions: Saccharomyces cerevisiae (strain ATCC 204508 / S288c), pH 4.6, Thermal, CD, acetate 100 mM, reversible: yes; for ddG of mutation (higher = less stable) / heat capacity change of unfolding / unfolding free energy: 25 °C

Chain of Cytochrome c isoform 1 P82G, P00044 (P00044 whole entry P82G, canonical isoform): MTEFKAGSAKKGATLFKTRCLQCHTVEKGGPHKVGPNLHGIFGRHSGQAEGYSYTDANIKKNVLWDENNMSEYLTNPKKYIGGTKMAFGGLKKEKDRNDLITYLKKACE
Chain of Cytochrome c isoform 1 P82R, P00044 (P00044 whole entry P82R, canonical isoform): as the sequence (P00044 whole entry P82G, canonical isoform) above, with G82R counted along it
Chain of Cytochrome c isoform 1 P82S, P00044 (P00044 whole entry P82S, canonical isoform): as the sequence (P00044 whole entry P82G, canonical isoform) above, with G82S counted along it
Chain of Cytochrome c isoform 1 P82V, P00044 (P00044 whole entry P82V, canonical isoform): as the sequence (P00044 whole entry P82G, canonical isoform) above, with G82V counted along it
Chain of Cytochrome c isoform 1 P82W, P00044 (P00044 whole entry P82W, canonical isoform): as the sequence (P00044 whole entry P82G, canonical isoform) above, with G82W counted along it
Chain of Cytochrome c isoform 1 wild type, P00044 (P00044 whole entry, canonical isoform): as the sequence (P00044 whole entry P82G, canonical isoform) above, with G82P counted along it
Chain of Cytochrome c isoform 1 P82Y, P00044 (P00044 whole entry P82Y, canonical isoform): as the sequence (P00044 whole entry P82G, canonical isoform) above, with G82Y counted along it
Chain of Cytochrome c isoform 1 P82L, P00044 (P00044 whole entry P82L, canonical isoform): as the sequence (P00044 whole entry P82G, canonical isoform) above, with G82L counted along it

Row | Substance | ddG of mutation (higher = less stable) (structure 1YCC) | heat capacity change of unfolding (structure 1YCC) | unfolding free energy (structure 1YCC) | Tm (structure 1YCC) | change of melting temperature, mutant - wild type (higher = more stable) (structure 1YCC) | heat capacity change of unfolding | unfolding free energy | Tm
1 | Cytochrome c isoform 1 P82W, P00044 | 2.38 kcal/mol | 1.37 kcal/mol/K | 2.7 kcal/mol | 47 °C | -6.5 °C |  |  | 
2 | Cytochrome c isoform 1 P82G, P00044 | 0.78 kcal/mol | 1.37 kcal/mol/K | 4.3 kcal/mol | 48.5 °C | -5 °C |  |  | 
3 | Cytochrome c isoform 1 P82R, P00044 | 0.97 kcal/mol | 1.37 kcal/mol/K | 4.11 kcal/mol | 48.6 °C | -4.9 °C |  |  | 
4 | Cytochrome c isoform 1 P82S, P00044 | 1.89 kcal/mol | 1.37 kcal/mol/K | 3.19 kcal/mol | 47.8 °C | -5.7 °C |  |  | 
5 | Cytochrome c isoform 1 P82L, P00044 |  |  |  | 48.6 °C | -4.9 °C |  |  | 
6 | Cytochrome c isoform 1 wild type, P00044 |  |  |  |  |  | 1.37 kcal/mol/K | 5.08 kcal/mol | 53.5 °C
7 | Cytochrome c isoform 1 P82V, P00044 | 1.07 kcal/mol | 1.37 kcal/mol/K | 4.01 kcal/mol | 48.3 °C | -5.2 °C |  |  | 
8 | Cytochrome c isoform 1 P82Y, P00044 | 2.07 kcal/mol | 1.37 kcal/mol/K | 3.01 kcal/mol | 46.7 °C | -6.8 °C |  |  | 
